{
  "source": "the supplement of paper PMC10567573",
  "parents": {"B1": {"name": "EPB41L3 (parent)", "chain": "GSKFRYSGRTQAQTRRASALIDRP"}},
  "data": [
    {"variants_of": "B1", "experiment": "protein stability index of a GFP-peptide fusion (GPS, HEK-293T) (PSI 1-6); higher = more stable", "settings": "c terminus: a fixed tail appended", "values": [
      {"variant": "GKKFRYSGRTQAQTRRASALIDRP", "note": "[S2K]", "protein stability index": 3.56},
      {"variant": "GLKFRYSGRTQAQTRRASALIDRP", "note": "[S2L]", "protein stability index": 2.33},
      {"variant": "GMKFRYSGRTQAQTRRASALIDRP", "note": "[S2M]", "protein stability index": 2.27},
      {"variant": "GNKFRYSGRTQAQTRRASALIDRP", "note": "[S2N]", "protein stability index": 2.6},
      {"variant": "GPKFRYSGRTQAQTRRASALIDRP", "note": "[S2P]", "protein stability index": 2.6},
      {"variant": "GQKFRYSGRTQAQTRRASALIDRP", "note": "[S2Q]", "protein stability index": 2.77},
      {"variant": "GRKFRYSGRTQAQTRRASALIDRP", "note": "[S2R]", "protein stability index": 2.51},
      {"variant": "GTKFRYSGRTQAQTRRASALIDRP", "note": "[S2T]", "protein stability index": 2.82},
      {"variant": "GVKFRYSGRTQAQTRRASALIDRP", "note": "[S2V]", "protein stability index": 2.5},
      {"variant": "GWKFRYSGRTQAQTRRASALIDRP", "note": "[S2W]", "protein stability index": 2.44},
      {"variant": "GYKFRYSGRTQAQTRRASALIDRP", "note": "[S2Y]", "protein stability index": 2.68},
      {"variant": "GSAFRYSGRTQAQTRRASALIDRP", "note": "[K3A]", "protein stability index": 2.02},
      {"variant": "GSCFRYSGRTQAQTRRASALIDRP", "note": "[K3C]", "protein stability index": 1.75},
      {"variant": "GSDFRYSGRTQAQTRRASALIDRP", "note": "[K3D]", "protein stability index": 2.5},
      {"variant": "GSEFRYSGRTQAQTRRASALIDRP", "note": "[K3E]", "protein stability index": 2.19},
      {"variant": "GSFFRYSGRTQAQTRRASALIDRP", "note": "[K3F]", "protein stability index": 2.34},
      {"variant": "GSGFRYSGRTQAQTRRASALIDRP", "note": "[K3G]", "protein stability index": 1.94},
      {"variant": "GSHFRYSGRTQAQTRRASALIDRP", "note": "[K3H]", "protein stability index": 2.33},
      {"variant": "GSIFRYSGRTQAQTRRASALIDRP", "note": "[K3I]", "protein stability index": 2.67},
      {"variant": "GSLFRYSGRTQAQTRRASALIDRP", "note": "[K3L]", "protein stability index": 2.92},
      {"variant": "GSMFRYSGRTQAQTRRASALIDRP", "note": "[K3M]", "protein stability index": 2.84},
      {"variant": "GSNFRYSGRTQAQTRRASALIDRP", "note": "[K3N]", "protein stability index": 3.08},
      {"variant": "GSPFRYSGRTQAQTRRASALIDRP", "note": "[K3P]", "protein stability index": 2.04},
      {"variant": "GSQFRYSGRTQAQTRRASALIDRP", "note": "[K3Q]", "protein stability index": 2.96},
      {"variant": "GSRFRYSGRTQAQTRRASALIDRP", "note": "[K3R]", "protein stability index": 2.83},
      {"variant": "GSSFRYSGRTQAQTRRASALIDRP", "note": "[K3S]", "protein stability index": 2.64},
      {"variant": "GSTFRYSGRTQAQTRRASALIDRP", "note": "[K3T]", "protein stability index": 2.74},
      {"variant": "GSVFRYSGRTQAQTRRASALIDRP", "note": "[K3V]", "protein stability index": 2.33},
      {"variant": "GSWFRYSGRTQAQTRRASALIDRP", "note": "[K3W]", "protein stability index": 2.46},
      {"variant": "GSYFRYSGRTQAQTRRASALIDRP", "note": "[K3Y]", "protein stability index": 1.89},
      {"variant": "GSKARYSGRTQAQTRRASALIDRP", "note": "[F4A]", "protein stability index": 4.23},
      {"variant": "GSKCRYSGRTQAQTRRASALIDRP", "note": "[F4C]", "protein stability index": 3.4},
      {"variant": "GSKDRYSGRTQAQTRRASALIDRP", "note": "[F4D]", "protein stability index": 4.17},
      {"variant": "GSKERYSGRTQAQTRRASALIDRP", "note": "[F4E]", "protein stability index": 3.82},
      {"variant": "GSKGRYSGRTQAQTRRASALIDRP", "note": "[F4G]", "protein stability index": 3.62},
      {"variant": "GSKHRYSGRTQAQTRRASALIDRP", "note": "[F4H]", "protein stability index": 3.83},
      {"variant": "GSKIRYSGRTQAQTRRASALIDRP", "note": "[F4I]", "protein stability index": 4},
      {"variant": "GSKKRYSGRTQAQTRRASALIDRP", "note": "[F4K]", "protein stability index": 4.62},
      {"variant": "GSKLRYSGRTQAQTRRASALIDRP", "note": "[F4L]", "protein stability index": 3.95},
      {"variant": "GSKMRYSGRTQAQTRRASALIDRP", "note": "[F4M]", "protein stability index": 3.48},
      {"variant": "GSKNRYSGRTQAQTRRASALIDRP", "note": "[F4N]", "protein stability index": 4.4},
      {"variant": "GSKPRYSGRTQAQTRRASALIDRP", "note": "[F4P]", "protein stability index": 3.47},
      {"variant": "GSKQRYSGRTQAQTRRASALIDRP", "note": "[F4Q]", "protein stability index": 4.47},
      {"variant": "GSKRRYSGRTQAQTRRASALIDRP", "note": "[F4R]", "protein stability index": 4.42},
      {"variant": "GSKSRYSGRTQAQTRRASALIDRP", "note": "[F4S]", "protein stability index": 4.04},
      {"variant": "GSKTRYSGRTQAQTRRASALIDRP", "note": "[F4T]", "protein stability index": 4.17},
      {"variant": "GSKVRYSGRTQAQTRRASALIDRP", "note": "[F4V]", "protein stability index": 4.28},
      {"variant": "GSKWRYSGRTQAQTRRASALIDRP", "note": "[F4W]", "protein stability index": 2.86},
      {"variant": "GSKYRYSGRTQAQTRRASALIDRP", "note": "[F4Y]", "protein stability index": 3.56},
      {"variant": "GSKFAYSGRTQAQTRRASALIDRP", "note": "[R5A]", "protein stability index": 3.49},
      {"variant": "GSKFCYSGRTQAQTRRASALIDRP", "note": "[R5C]", "protein stability index": 2.67},
      {"variant": "GSKFDYSGRTQAQTRRASALIDRP", "note": "[R5D]", "protein stability index": 3.74},
      {"variant": "GSKFEYSGRTQAQTRRASALIDRP", "note": "[R5E]", "protein stability index": 4.08},
      {"variant": "GSKFFYSGRTQAQTRRASALIDRP", "note": "[R5F]", "protein stability index": 2.89},
      {"variant": "GSKFGYSGRTQAQTRRASALIDRP", "note": "[R5G]", "protein stability index": 3.8},
      {"variant": "GSKFHYSGRTQAQTRRASALIDRP", "note": "[R5H]", "protein stability index": 3.1},
      {"variant": "GSKFIYSGRTQAQTRRASALIDRP", "note": "[R5I]", "protein stability index": 3.07},
      {"variant": "GSKFKYSGRTQAQTRRASALIDRP", "note": "[R5K]", "protein stability index": 2.73},
      {"variant": "GSKFLYSGRTQAQTRRASALIDRP", "note": "[R5L]", "protein stability index": 2.71},
      {"variant": "GSKFMYSGRTQAQTRRASALIDRP", "note": "[R5M]", "protein stability index": 4.43},
      {"variant": "GSKFNYSGRTQAQTRRASALIDRP", "note": "[R5N]", "protein stability index": 3.23},
      {"variant": "GSKFPYSGRTQAQTRRASALIDRP", "note": "[R5P]", "protein stability index": 3.27},
      {"variant": "GSKFQYSGRTQAQTRRASALIDRP", "note": "[R5Q]", "protein stability index": 3.26},
      {"variant": "GSKFSYSGRTQAQTRRASALIDRP", "note": "[R5S]", "protein stability index": 3.8},
      {"variant": "GSKFTYSGRTQAQTRRASALIDRP", "note": "[R5T]", "protein stability index": 3.59},
      {"variant": "GSKFVYSGRTQAQTRRASALIDRP", "note": "[R5V]", "protein stability index": 3.2},
      {"variant": "GSKFWYSGRTQAQTRRASALIDRP", "note": "[R5W]", "protein stability index": 2.62},
      {"variant": "GSKFYYSGRTQAQTRRASALIDRP", "note": "[R5Y]", "protein stability index": 2.82},
      {"variant": "GSKFRASGRTQAQTRRASALIDRP", "note": "[Y6A]", "protein stability index": 3.85},
      {"variant": "GSKFRCSGRTQAQTRRASALIDRP", "note": "[Y6C]", "protein stability index": 3.51},
      {"variant": "GSKFRDSGRTQAQTRRASALIDRP", "note": "[Y6D]", "protein stability index": 4},
      {"variant": "GSKFRESGRTQAQTRRASALIDRP", "note": "[Y6E]", "protein stability index": 4.13},
      {"variant": "GSKFRFSGRTQAQTRRASALIDRP", "note": "[Y6F]", "protein stability index": 2.96},
      {"variant": "GSKFRGSGRTQAQTRRASALIDRP", "note": "[Y6G]", "protein stability index": 3.91},
      {"variant": "GSKFRHSGRTQAQTRRASALIDRP", "note": "[Y6H]", "protein stability index": 3.22},
      {"variant": "GSKFRISGRTQAQTRRASALIDRP", "note": "[Y6I]", "protein stability index": 3.62},
      {"variant": "GSKFRKSGRTQAQTRRASALIDRP", "note": "[Y6K]", "protein stability index": 4.13},
      {"variant": "GSKFRLSGRTQAQTRRASALIDRP", "note": "[Y6L]", "protein stability index": 3.15},
      {"variant": "GSKFRMSGRTQAQTRRASALIDRP", "note": "[Y6M]", "protein stability index": 4.64},
      {"variant": "GSKFRNSGRTQAQTRRASALIDRP", "note": "[Y6N]", "protein stability index": 3.67},
      {"variant": "GSKFRPSGRTQAQTRRASALIDRP", "note": "[Y6P]", "protein stability index": 3.68},
      {"variant": "GSKFRQSGRTQAQTRRASALIDRP", "note": "[Y6Q]", "protein stability index": 3.71},
      {"variant": "GSKFRRSGRTQAQTRRASALIDRP", "note": "[Y6R]", "protein stability index": 4.23},
      {"variant": "GSKFRSSGRTQAQTRRASALIDRP", "note": "[Y6S]", "protein stability index": 3.85},
      {"variant": "GSKFRTSGRTQAQTRRASALIDRP", "note": "[Y6T]", "protein stability index": 4.35},
      {"variant": "GSKFRVSGRTQAQTRRASALIDRP", "note": "[Y6V]", "protein stability index": 3.86},
      {"variant": "GSKFRWSGRTQAQTRRASALIDRP", "note": "[Y6W]", "protein stability index": 3.49},
      {"variant": "GSKFRYAGRTQAQTRRASALIDRP", "note": "[S7A]", "protein stability index": 2.91},
      {"variant": "GSKFRYCGRTQAQTRRASALIDRP", "note": "[S7C]", "protein stability index": 2.1},
      {"variant": "GSKFRYDGRTQAQTRRASALIDRP", "note": "[S7D]", "protein stability index": 3.68},
      {"variant": "GSKFRYEGRTQAQTRRASALIDRP", "note": "[S7E]", "protein stability index": 3.63},
      {"variant": "GSKFRYFGRTQAQTRRASALIDRP", "note": "[S7F]", "protein stability index": 2.96},
      {"variant": "GSKFRYGGRTQAQTRRASALIDRP", "note": "[S7G]", "protein stability index": 3.85},
      {"variant": "GSKFRYHGRTQAQTRRASALIDRP", "note": "[S7H]", "protein stability index": 2.94}
    ]}
  ]
}
